Measured values published in US11371056B2, “HPPD variants and methods of use” (BASF Agricultural Solutions Seed US LLC, priority 2017, dated 2022).

What was measured:
[1] = system: Pseudomonas fluorescens HPPD polypeptide (wild-type and mutants); test: Coupled HPPD activity assay: turnover and residual turnover in crude HPPD polypeptide extracts with and without Cmpd. 1; type: biochemical
[2] = system: soybean plants (transgenic T0 events, wild-type); test: Greenhouse spray test of T0 soybean events with Cmpd. 1, leaf area damage score; type: in vivo; set-up: key to leaf area damage score, 25th percentile / leaf area damage score, Interquartile range: damage score 0 (no damage) to 100 (complete bleaching); settings: five days after application of Cmpd. 1 at 300 g AI/ha; for leaf area damage score, 25th percentile / leaf area damage score, 75th percentile / leaf area damage score, 90th percentile / leaf area damage score, Median: T0 soybean events expressing the polypeptide; for leaf area damage score, 25th percentile: scale 0 (no damage) to 100 (complete bleaching); for leaf area damage score, 75th percentile / leaf area damage score, 90th percentile / leaf area damage score, Median: scale 0 to 100; for leaf area damage score, Median: 50th percentile; for leaf area damage score, Interquartile range: difference between 75th and 25th percentile, T0 soybean events
Text: Tolerant green shoots were transferred to rooting media or grafted. Rooted plantlets were transferred to the greenhouse after an acclimation period. Plants containing the transgene were then sprayed with HPPD inhibitor herbicides, as for example with mesotrione at a rate of 300-600 g AI/ha, or with Cmpd. 1 (2-chloro-3-(methylsulfanyl)-N-(1-methyl-1H-tetrazol-5-yl)-4-(trifluoromethyl)benzamide) at a rate of 150 g-300 g AI/ha supplemented with ammonium sulfate and methyl ester rapeseed oil. Five to ten days after the application, the symptoms due to the application of the herbicide were evaluated and compared to the symptoms observed on wild-type plants under the same conditions.
For example, T0 soybean plants having a “plant expression cassette”, which includes an HPPD inhibitor tolerant HPPD polypeptide of the present invention, were tested towards the tolerance of Cmpd. 1.
Prior greenhouse trials with the transgenic plants, soybean transformants were routinely analyzed for the expression and presence of the transgenes using the ELISA protein detection method (see detailed description under item D and H). Only plants recovering in the selection media and having a detectable HPPD transgene protein expression were used for the herbicide tolerance analysis. A DeVries Tracker Sprayer was calibrated prior to each spraying. The chemical formulation used for Cmpd. 1 was supplemented with ammonium sulfate and methylated rape seed oil. Spray tests were conducted with a concentration, which equals to 300 grams AI per hectare (300 g AI/ha).
In greenhouse trials, independent T0 soybean events containing an exemplary mutant HPPD polypeptide were sprayed with the HPPD inhibitor herbicide Cmpd. 1 (2-chloro-3-(methylsulfanyl)-N-(1-methyl-1H-tetrazol-5-yl)-4-(trifluoromethyl)benzamide) at the rate of 300 grams AI/ha, supplemented with ammonium sulfate and methyl ester rapeseed oil. Five days after the application, the leaf damaged area due to the HPPD inhibitor herbicide is scored in a scale from 0 (no damage) to 100 (complete bleaching). Under those conditions, the wild-type plants were completely bleached and their damage scores were in the 95-100 range.
Table 5 presents the distribution of the HPPD inhibitor herbicide damage score data as percentile for exemplary mutant HPPD inhibitor herbicide tolerant polypeptides (SEQ ID NOs). The percentiles normalize ranks of the damage score from an individual plant in a population. […] The median is the 50th percentile. Half the values had higher damage scores; half had lower damage scores. The value of the 75th and 90th percentile is the damage score where 75% and 90% of the soybean events had lower damage scores, respectively. The difference between the 75th and 25th percentile is called the interquartile range and a marker to quantify scattering in the population. All constructs had only one single cassette insertion in the soybean genome.

| Molecule | Residual turnover [%] ([1]; 100 μM Cmpd. 1, normalised to turnover without inhibitor) | Turnover ([1]; absence of Cmpd. 1, changes in absorbance (OD) at 320 nm in the coupled assay, 30 min) | Residual turnover ([1]; presence of 100 μM Cmpd. 1, changes in absorbance (OD) at 320 nm in the coupled assay, 30 min) | leaf area damage score, 25th percentile [2] | leaf area damage score, 75th percentile [2] | leaf area damage score, 90th percentile [2] | leaf area damage score, Median [2] | leaf area damage score, Interquartile range [2] |
| --- | --- | --- | --- | --- | --- | --- | --- | --- |
| SEQ ID NO:69 (protein, mutant HPPD polypeptide) MADLYENPMGLMGFEFIEFASPTPGTLEPIFEIMGFTKVATHRSKNVHLYRQGEINLILNNEPNSIASYFAAEHGPSVCGMAFRVKDSQKAYNRALELGAQPIHIDTGPMELNLPAIKGIGGAPLYLIDRFGEGSSIYDIDFVYLEGVERNPVGAGLKVIDHLTHNVYRGRMVYWANFYEKLFNFREARYFDIKGEYTGLTSKAMSAPDGMIKIPLNEESSKGAGQIEEFLMQFNGEGIQHVAFLTDDLVKTWDALKKIGMRFMTAPGDEYYEMLEGRLPDHGEPVDQLQARGILLDGSSVEGDKRLLLQIFSEQLMGPVFFEFIQRKGDDGFGPDSFKVLFESIERDQVRRGVLTAD | 40% | 0.173 | 0.069 | – | – | – | – | – |
| SEQ ID NO: 64 (protein, mutant HPPD polypeptide) MADLYENPMGLMGFEFIEFASPTPGTLEPIFEIMGFTKVATHRSKNVHLYRQGEINLILNNEPNSIASYFAAEHGPSVCGMAFRVKDSQKAYNRALELGAQPIHIDTGPMELNLPAIKGIGGAPLYLIDRFGEGSSIYDIDFVYLEGVERNPVGAGLKVIDHLTHNVYRGRMVYWANFYEKLFNFREARYFDIKGEYTGLTSKAMSAPDGMIKIPLNEESSKGAGQIEEFLMQFNGEGIQHVAFLTDDLVKTWDALKKIGMRFLTAPGDEYYEMLEGRLPDHGEPVDQLQARGILLDGSSVEGDKRLLLQIFSEQLMGPVFFEFIQRKGDDGFGPHSFKVLFESMERDQVRRGVLTAD | – | – | – | 5.0 | 25.0 | 38.0 | 10.0 | 20.0 |
| SEQ ID NO: 45 (protein, mutant HPPD polypeptide) MADLYENPMGLMGFEFIEFASPTPGTLEPIFEIMGFTKVATHRSKNVHLYRQGEINLILNNEPNSIASYFAAEHGPSVCGMAFRVKDSQKAYNRALELGAQPIHIDTGPMELNLPAIKGIGGAPLYLIDRFGEGSSIYDIDFVYLEGVERNPVGAGLKVIDHLTHNVYRGRMVYWANFYEKLFNFREARYFDIKGEYTGLTSKAMSAPDGMIKIPLNEESSKGAGQIEEFLMQFNGEGIQHVAFLTDDLVKTWDALKKIGMRFMTAPGDEYYEMLEGRLPDHGEPVDQLQARGILLDGSSVEGDKRLLLQIFSETLMGPVFFEFIQRKGDDGFGPHSFKVLFESMERDQVRRGVLTAD | – | – | – | 10.0 | 25.0 | 35.0 | 15.0 | 15.0 |
| SEQ ID NO: 2 (protein, mutant HPPD polypeptide) MADLYENPMGLMGFEFIEFASPTPGTLEPIFEIMGFTKVATHRSKNVHLYRQGEINLILNNEPNSIASYFAAEHGPSVCGMAFRVKDSQKAYNRALELGAQPIHIDTGPMELNLPAIKGIGGAPLYLIDRFGEGSSIYDIDFVYLEGVERNPVGAGLKVIDHLTHNVYRGRMVYWANFYEKLFNFREARYFDIKGEYTGLTSKAMSAPDGMIRIPLNEESSKGAGQIEEFLMQFNGEGIQHVAFLTDDLVKTWDALKKIGMRFMTAPPDTYYEMLEGRLPDHGEPVDQLQARGILLDGSSVEGDKRLLLQIFSETLMGPVFFEFIQRKGDDGFGPWNFAQLFESIERDQVRRGVLTAD | – | – | – | 15.0 | 45.0 | 87.0 | 20.0 | 30.0 |
